Patent publication US20240317834A1, “COMPOSITIONS AND METHODS FOR NEUROLOGICAL DISEASES” (CODA BIOTHERAPEUTICS, INC., priority 2020, published 2024)

Key:
[1] = tested on: rat DRG neurons; assay: Rheobase shift and evoked action potentials in rat DRG neurons (current clamp); format: cell-based
Description: Using whole cell manual patch clamp electrophysiology in HEK293 cells, rat DRG neurons and rat hippocampal neurons, the EC50 of the various engineered receptors disclosed herein to Ach and non-native ligands was measured using the Hill equation with peak current measurements from escalating doses of ligand. The rheobase shift was also measured in rat DRG neurons, which reflects the efficacy of the receptors. To calculate the rheobase, first, the amount of current that can produce an action potential was determined. Then the ligand was added, followed by a step wise increase in the current injected up to 700 pA.
For manual patch clamp experiments, Cells plated on coverslips were visualized at 10× and 40× on an inverted fluorescence microscope (Olympus). Recordings were made with an Axopatch 200B amplifier and Digidata 1550B (Molecular Devices) at RT using 3-6 MOhm glass patch electrodes (Sutter, BF150-86-10). Unless otherwise stated, recordings were made in extracellular solution (ECS) containing: 140 mM sodium chloride, 4 mM potassium chloride, 1 mM magnesium chloride, 2 mM calcium chloride, 10 mM HEPES, and 10 mM D-(+)-glucose (pH=7.3 with sodium hydroxide, osmolarity=305−315 mOsm). An 8-line reservoir (AutoMate Scientific) in combination with an 8-channel zero-dead-volume perfusion pencil (AutoMate Scientific) was used for perfusion. Data was acquired using pClamp software (Molecular Devices). Traces were either analyzed in Clampfit (Molecular Devices) or using custom Python code. Plotting and statistics were performed in GraphPad Prism.
DRG rheobase experiments were performed in current clamp mode using a potassium-based internal solution containing: 100 mM potassium D-gluconate, 28 mM potassium chloride, 1 mM magnesium chloride hexahydrate, 5 mM magnesium ATP, 10 mM HEPES, and 0.5 mM EGTA (pH=7.2 with potassium hydroxide, osmolarity=290-295 mOsm, calculated liquid junction potential=−13.5 mV). To measure DRG input resistance and rheobase, 500 ms current steps (−200 pA to 700 pA) were applied the membrane in the presence and absence of a compound. No holding current was applied to the membrane for cells included in the final datasets. Data were acquired at 10 kHz, with Bessel filter at 2 kHz and series resistance compensation at 100%. Rheobase was defined as the smallest depolarizing current injection required to cause an action potential to fire in the cell. In a subset of cells, the rheobase was ambiguous, since the action potential appeared to be graded in amplitude. In these cases, a […] of the trace clarified the rheobase. Input resistance was measured from the negative current injections, calculated as the difference in membrane potential at steady state divided by the current injection amplitude and then averaged across the four negative current steps for each recording. Resting membrane potential was measured from the first 100 ms of each sweep, averaged for each recording, and corrected for liquid junction potential. One-way ANOVA with multiple comparisons was used to test for significance of difference in rheobase and input resistance between baseline, drug, and wash conditions.

[2] = tested on: Lenti-X 293T cells; assay: YFP fluorescence quenching anion reporter plate reader assay of engineered receptors stimulated with acetylcholine or a non-native ligand; format: cell-based
Outline: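 Lenti-X 293T cells carrying a YFP anion reporter were transiently transfected with channel DNA and assayed the next day in HEPES-buffered ECS at pH 7.2. Ligand (acetylcholine or non-native ligand) was added in NaI-substituted ECS. Percent quench was the mean of the last 10 s relative to the 15 s pre-addition baseline.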

B1: CODA1045: engineered chimeric LGIC receptor, R101W, Y210V in SEQ ID NO: 33 (protein)
chain: MRCSPGGVWLALAASLLHVSLQGEFQRKLYKELVKNYNPLERPVANDSQPLTVYFSLSLLQIMDVDEKNQVLTTNIWLQMSWTDHYLQWNVSEYPGVKTVWFPDGQIWKPDILLYNSADERFDATFHTNVLVNSSGHCQYLPPGIFKSSCPMDLKNFPMDVQTCKLKFGSWSYGGWSLDLQMQEADISGYIPNGEWDLVGIPGKRSERFVECCKEPYPDVTFTVTMRRRMGYYLIQMYIPSLLIVILSWISFWINMDAAPARVGLGITTVLTMTTQSSGSRASLPKVSYVKAIDIWMAVCLLFVFSALLEYAAVNFVSRQHKELLRFRRKRRHHKSPMLNLFQEDEAGEGRFNFSAYGMGPACLQAKDGISVKGANNSNTTNPPPAPSKSPEEMRKLFIQRAKKIDKISRIGFPMAFLIFNMFYWIIYKIVRREDVHNQ
modifications: synthetic sequence of chimeric LGIC
- Rheobase Shift; Rat DRG Neurons, +TC-5619 @ EC90 ([1]; +TC-5619 @ EC90): 700 ± 0 pA
- Rheobase Shift; Rat DRG Neurons, Baseline ([1]; Baseline, no ligand): 141 ± 22 pA
- YFP fluorescence quenching using CNL001 ([2]; 1 nM CNL001, first column): 0.804%
- YFP fluorescence quenching using CNL001 ([2]; 1 nM CNL001, second column): 11.275%
- YFP fluorescence quenching using TC-5619/Bradanicline ([2]; 1 nM brd): −1.431%
- YFP fluorescence quenching using TC-5619/Bradanicline ([2]; 3 nM brd): −14.993%
- YFP fluorescence quenching using Varenicline ([2]; 3 nM var, first column): 6.745
- YFP fluorescence quenching using Varenicline ([2]; 3 nM var, second column): 8.397
- YFP fluorescence quenching using CNL001 ([2]; 10 nM CNL001, first column): 15.843%
- YFP fluorescence quenching using CNL001 ([2]; 10 nM CNL001, second column): 16.619%
- YFP fluorescence quenching using TC-5619/Bradanicline ([2]; 10 nM brd): −5.52%
- YFP fluorescence quenching using TC-5619/Bradanicline ([2]; 30 nM brd): 15.49%
- YFP fluorescence quenching using Varenicline ([2]; 30 nM var, first column): 14.1
- YFP fluorescence quenching using Varenicline ([2]; 30 nM var, second column): 19.095
- YFP fluorescence quenching using CNL001 ([2]; 50 nM CNL001, first column): 15.205%
- YFP fluorescence quenching using CNL001 ([2]; 50 nM CNL001, second column): 18.771%
- YFP fluorescence quenching using ABT-126 ([2]; 50 nM abt): −24.16%
- YFP fluorescence quenching using CNL001 ([2]; 100 nM CNL001, first column): 9.332%
- YFP fluorescence quenching using CNL001 ([2]; 100 nM CNL001, second column): 18.218%
- YFP fluorescence quenching using ABT-126 ([2]; 100 nM abt): −24.7%
- YFP fluorescence quenching using TC-5619/Bradanicline ([2]; 100 nM brd): 72.105%
- YFP fluorescence quenching using ABT-126 ([2]; 300 nM abt): −16.09%
- YFP fluorescence quenching using TC-5619/Bradanicline ([2]; 300 nM brd): 71.411%
- YFP fluorescence quenching using Varenicline ([2]; 300 nM var, first column): 16.83
- YFP fluorescence quenching using Varenicline ([2]; 300 nM var, second column): 21.507
- YFP fluorescence quenching using Varenicline ([2]; 500 nM var, first column): 21.586
- YFP fluorescence quenching using Varenicline ([2]; 500 nM var, second column): 23.131
- YFP fluorescence quenching using CNL001 ([2]; 1 uM CNL001, first column): 35.294%
- YFP fluorescence quenching using CNL001 ([2]; 1 uM CNL001, second column): 36.542%
- YFP fluorescence quenching using ABT-126 ([2]; 1 uM abt): −11.61%
- YFP fluorescence quenching using Varenicline ([2]; 1 uM var, first column): 31.591
- YFP fluorescence quenching using Varenicline ([2]; 1 uM var, second column): 26.479
- percent quench of YFP fluorescence, 30 nM TC-6683 ([2]; TC-6683 30 nM): 1.735%
- percent quench of YFP fluorescence, 300 nM TC-6683 ([2]; TC-6683 300 nM): 0.642%
- percent quench of YFP fluorescence, 3 uM TC-6683 ([2]; TC-6683 3 uM): 2.403%
- percent quench of YFP fluorescence, 30 uM TC-6683 ([2]; TC-6683 30 uM): 6.006%
- percent quench of YFP fluorescence, 100 uM TC-6683 ([2]; TC-6683 100 uM): −4.277%
- percent quench of YFP fluorescence, 10 uM ach ([2]; acetylcholine 10 uM): −2.52%
- percent quench of YFP fluorescence, 100 uM ach ([2]; acetylcholine 100 uM): −11.98%
- percent quench of YFP fluorescence, 300 uM ach ([2]; acetylcholine 300 uM): −16.71%
- percent quench of YFP fluorescence, 500 uM ach ([2]; acetylcholine 500 uM): −12.87%
- percent quench of YFP fluorescence, 1 mM ach ([2]; acetylcholine 1 mM): −14.41%
- percent quench of YFP fluorescence, 3 mM ach ([2]; acetylcholine 3 mM): −7.4%
- percent quench of YFP fluorescence, 10 mM ach ([2]; acetylcholine 10 mM): −1.5%
